Results from patent US20170165339A1 (IMMATICS BIOTECHNOLOGIES, published 2017).

Target: HLA-A*02 (human)
Assay: UV peptide-exchange ELISA, yield grade

B1: SLTEVSLPL (SEQ ID NO: 45) (peptide)
peptide: SLTEVSLPL
peptide exchange yield: 50 to 75%
